Laboratory results taken from patent US20250027068.

Biological target: pooled human IgG (human IgG1, 2, 3 and 4)

Row | Protein | Enzyme Activity Endpoint Assay (purified): Fab′2 | Enzyme Activity Endpoint Assay (purified): Fc | Enzyme Activity Endpoint Assay (purified): IgG | Enzyme Activity Endpoint Assay (purified): scIgG | Enzyme Activity Endpoint Assay: Fab′2 | Enzyme Activity Endpoint Assay: Fc | Enzyme Activity Endpoint Assay: IgG | Enzyme Activity Endpoint Assay: scIgG
1 | PRT-407 (protein) MVTSVWTKGVTPPADFTQGEDVFHAPYVANQGWYDITKTFNGKDDLLCGAATAGNMLHWWFDQNKEYIEAYLKKHPEKQKIIFGDQELLDVRKAINTKGSQKNSELFNYFRDKAFPNLSARRLGVMPDLVLDMFINGYYLNVTKTQTTDVNRTYQEKDKRGGIFDAVFTRGDQSKLLTSRHDFKEKGLKEISDLIKQELTEGKALGLSHTYANVRINHVINLWGADFDSDGNLKAIYVTDSDSNASIGMKKYFVGVNSAGKVAISAKEIKEDNIGAQVLGLFTLSTGQDIWNQTN | 209 ng/µL | 277 ng/µL | 90 ng/µL | 396 ng/µL | 209 ng/µL | 277 ng/µL | 90 ng/µL | 396 ng/µL
2 | PRT-400 (protein) MVTSVWTKGVTPPADFTQGEDVFHAPYDANQGWYDITKTFNGKDDLLCGAATAGNMLHWWFDQNKEYIEAYLKKHPEKQKIMFGDQELLDVRKAINTKGSQKNSELFNYFRDKAFPNLSARRLGVMPDLVLDMFINGYYLNVTKTQTTDVNRTYQEKDKRGGIFDAVFTRGDQSKLLTSRHDFKEKGLKEISDLIKQELTEGKALGLSHTYANVRINHVINLWGADFDSDGNLKAIYVTDSDSNASIGMKKYFVGVNSAGKVAISAKEIKEDNIGAQVLGLFTLSTGQDIWNQTN | 556 ng/µL | 333 ng/µL | 176 ng/µL | 0 ng/µL | 556 ng/µL | 333 ng/µL | 176 ng/µL | 0 ng/µL
3 | PRT-408 (protein) MVTSVWTKGVTPPADFTQGEDVFHAPYVANQGWYDITKTFNGKDDLLCGAATAGNMLHWWFDQNKEYIEAYLKKHPEKQKIMFGDQELLDVRKAINTKGSQKNSELFNYFRDKAFPNLSARRLGVFPDLVLDMFINGYYLNVTKTQTTDVNRTYQEKDKRGGIFDAVFTRGDQSKLLTSRHDFKEKGLKEISDLIKQELTEGKALGLSHTYANVRINHVINLWGADFDSDGNLKAIYVTDSDSNASIGMKKYFVGVNSAGKVAISAKEIKEDNIGAQVLGLFTLSTGQDIWNQTN |  |  |  |  | 564 ng/µL | 334 ng/µL | 179 ng/µL | 0 ng/µL
4 | PRT-439 (protein) MSQTEDSESLQRLRDIEDFQAEKKKQNVVYTKWLDGVDVKDHDFRKIVDGNIAYYATPLLNGRGFYDINKDFNRDSDKCAAAVAANMFHYWLDRNRDNVDRFLRQNPEKHGIIELPDGQLKLSDFLNTYESDDGYRDKSKLFDFISNNFNGPVWTDKLLDNYINGYAYNYKYGRLIEDPTKNTSKINFFKEVFNEKILTNNHSIRNQNEFSVLLSEALYTGKAIGLSYGPAGLRHSLGHIISVWGADLDADGNVVAIYVTDSDDKKLTIGDERVGLKRYKISTDDEGRLRLTAYEETHNTGGQIRGLWTLDTGKQAWADYFDKTEQTGTDQAEQ | 179 ng/µL | 191 ng/µL | 325 ng/µL | 528 ng/µL | 179 ng/µL | 191 ng/µL | 325 ng/µL | 528 ng/µL
5 | PRT-433 (protein) MSQTEDSESLQRLRDIEDFQAEKKKQNVVYTKWLDGVDVKDHDFRKIVDGNIAYYATPLLNGRGFYDINKDFNRDSDKCAAAVAANMFHYWLDRNRDNVDRFLRQNPEKHGIIELPDGQLKLSDFLNTYESDDGYRDKSKLFDFISNNFNGPVWTDKLLDNYINGYAYNYKYGRTIEDPTKNTSKINFFKEVFNEKILTNNHSIRNQNEFSVLLIEALYTGKAIGLSYGPAGLRHSLGHIISVWGADLDADGNVVAIYVTDSDDKKLTIGDERVGLKRYKISTDDEGRLRLTAYEETHNTGGQIRGLWTLDTGKQAWADYFDKTEQTGTDQAEQ | 575 ng/µL | 489 ng/µL | 0 ng/µL | 224 ng/µL | 575 ng/µL | 489 ng/µL | 0 ng/µL | 224 ng/µL
6 | PRT-442 (protein) MSQTEDSESLQRLRDIEDFQAEKKKQNVVYTKWLDGVDVKDHDFRKIVDGNIAYYATPLLNGRGFYDINKDFNRDNDKCAAAVAANMFHYWLDRNRDNVDRFLRQNPEKHGIIELPDGQLKLSDFLNTYESDDGYRDKSKLFDFISNNFNGPVWTDKLLDNYINGYAYNYKYGRTIEDPTKNTSKINFFKEVFNEKILTNNHSIRNQNEFSVLLSEALYTGKAIGLSYGPAGLRHSLGHIISVWGADLDADGNVVAIYVTDSDDKKLTIGDERVGLKRYKISTDDEGRLRLTAYEETHNTGGQIRGLWTLDTGKQAWADYFDKTEQTGTDQAEQ |  |  |  |  | 18 ng/µL | 169 ng/µL | 680 ng/µL | 381 ng/µL
7 | PRT-415 (protein) MTITSVWTKGVTPPTPEDFRYNNEDVLHAPYVANQGWYDITKTFDGKDNLLCGAATAGNMLHWWFDQNKEEIERYLKKHPEKQKIIFNNQELFDVKAAIDTKDSQTNSKLFNYFLDKAFPNLSARQLGVMPDLVLDMFINGYYLNLGKTQSTDVNRPYQDKDKRGGIFDAVFTRGDQTTLLTARHDLKNKGLNEISDLIKQELTEGKALALSHTYANVRINHVINLWGADFDAEGNLIAIYVTDSDANASIGMKKYFVGVNANGKVAISAKKIEGDNIGAQVLGLFTLSTGQDIWQKLS | 46 ng/µL | 225 ng/µL | 164 ng/µL | 630 ng/µL | 46 ng/µL | 225 ng/µL | 164 ng/µL | 630 ng/µL
8 | PRT-424 (protein) MTITSVWTKGVTPPTPEDFRYNNEDVLHAPYVANQGWYDITKTFDGKDNLLCGAATAGNMLHWWFDQNKEEIERYLKKHPEKQKIIFNNQELFDVKAAIDTKDSQTNSKLFNYFRDKAFPNLSARQLGVMPDLVLDMFINGYYLNLGKTQSTDVNRPYQDKDKRGGIFDAVFTRGDQTTLLTARHDLKNKGLNEISDLIKQELTEGKALALSHTYANVRINHVINLWGADFDAEGNLIAIYVTDSDANASIGMKKYFVGVNANGKVAISAKKIEGDNIGAQVLGLFTLSLGQDIWQKLS |  |  |  |  | 618 ng/µL | 348 ng/µL | 88 ng/µL | 0 ng/µL
9 | PRT-416 (protein) MTITSVWTKGVTPPTPEDFRYNNEDVLHAPYVANQGWYDITKTFDGKDNLLCGAATAGNMLHWWFDQNKEEIERYLKKHPEKQKIIFNNQELFDVKAAIDTKDSQTNSKLFNYFRDKAFPNLSARQLGVMPDLVLDMFINGYYLNLPKTQSTDVNRPYQDKDKRGGIFDAVFTRGDQTTLLTARHDLKNKGLNEISDLIKQELTEGKALALSHTYANVRINHVINLWGADFDAEGNLIAIYVTDSDANASIGMKKYFVGVNANGKVAISAKKIEGDNIGAQVLGLFTLSTGQDIWQKLS |  |  |  |  | 125 ng/µL | 258 ng/µL | 96 ng/µL | 453 ng/µL
10 | PRT-423 (protein) MTITSVWTKGVTPPTPEDFRYNNEDVLHAPYVANQGWYDITKTFDGKDNLLCGAATAGNMLHWWFDQNKEEIERYLKKHPEKQKIIFNNQELFDVKAAIDTKDSQTNSKLFNYFRDKAFPNLSARQLGVMPDLVLDMFINGYYLNLGKTQSTDVNRPYQDKDKRGGIFDAVFTRGDQTTLLTARHDLKNKGLNEISDLIKQELTEGKALALSHTYANVRINHVINLWGADFDAEGNLIAIYVTDSDANASIGMKKYFVGRNANGKVAISAKKIEGDNIGAQVLGLFTLSTGQDIWQKLS | 398 ng/µL | 0 ng/µL | 1660 ng/µL | 0 ng/µL | 398 ng/µL | 0 ng/µL | 1660 ng/µL | 0 ng/µL
11 | PRT-384 (protein) MVTSVWTKGVTPPTNFTYGEDVLHAPYVANQGWYDITKTFNGKDDLLCGAATAGNMLHWWFDQNKEQIENYLKKHPEKQKINFNGEQMFDVKEAIDTKDSQLDSKLFEYFKEKAFPNLSTKHLGVFPDHVIDMFINGYRLSLTNHGPTPVKRGSKDPRGGIFDAVFTRGDQSKLLTNRHDFKEKTLKEISDLIKQELTEGKALGISHTYANVRINHVINLWGADFDAEGNLEAIYVTDSDSNASIGMKKYFVGVNSNGKVAISAKEIEEDNIGAQVLGLFTLSTGQDIWNQTN | 365 ng/µL | 0 ng/µL | 1510 ng/µL | 0 ng/µL | 365 ng/µL | 0 ng/µL | 1510 ng/µL | 0 ng/µL
12 | PRT-392 (protein) MVTSVWTKGVTPPTNFTYGEDVLHAPYVANQGWYDITKTFNGKDDLLCGAATAGNMLHWWFDQNKEQIENYLKKHPEKQKINFNGEQMFDVKEAIDTKDSQLDSKLFEYFKEKAFPYLSTKHLGVFPDHVIDMFINGYRLSLTNHGPTPVKRGSKDPRGGIFDAVFTRGVQSKLLTNRHDFKEKTLKEISDLIKQELTEGKALGISHTYANVRINHVINLWGADFDAEGNLEAIYVTDSDSNASIGMKKYFVGVNSNGKVAISAKEIEEDNIGAQVLGLFTLSTGQDIWNQTN | 513 ng/µL | 354 ng/µL | 0 ng/µL | 196 ng/µL | 513 ng/µL | 354 ng/µL | 0 ng/µL | 196 ng/µL
